Laboratory results published in EP0980526B1 (IMPERIAL CANCER RESEARCH TECHNOLOGY LIMITED, dated 1998).

Molecular target: T1, AAD-ER (acidic activation domain fused to the LBD of the wild-type ER) (human, UniProt P03372 282-595)
T1 construct: range 282-595; Yeast two-hybrid prey; tested with or without 10^-7 M 17-beta-estradiol (E2); also called LBD of the ER; ER LBD
T1 sequence (looked up): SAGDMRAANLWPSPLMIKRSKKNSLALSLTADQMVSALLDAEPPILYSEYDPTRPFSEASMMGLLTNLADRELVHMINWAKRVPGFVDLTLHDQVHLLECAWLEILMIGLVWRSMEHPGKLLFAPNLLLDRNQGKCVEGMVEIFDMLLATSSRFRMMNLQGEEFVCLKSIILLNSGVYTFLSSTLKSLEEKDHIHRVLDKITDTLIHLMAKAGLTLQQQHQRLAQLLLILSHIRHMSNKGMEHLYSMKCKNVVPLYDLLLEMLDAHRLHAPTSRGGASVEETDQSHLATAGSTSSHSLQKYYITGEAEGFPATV
Assay: yeast two-hybrid

B1: DBD alone (other, human, UniProt P03372 176-282, looked up)
chain: MESAKETRYCAVCNDYASGYHYGVWSCEGCKAFFKRSIQGHNDYMCPATNQCTIDKNRRKSCQACRLRKCYEVGMMKGGIRKDRRGGRMLKHKRQRDDGEGRGEVGS
notes: Two-hybrid bait control without a motif
B1: no binding.
